Laboratory results reported in patent US20100291078A1 (published 2010).

Legend:
human CD38-Fc = biological target: T1, human CD38-Fc (human, UniProt P28907 43-300, limits assumed); experiment: SPR (Biacore 3000), CD38-Fc immobilized, 1:1 fit, apparent
T1 construct: not shown: Fc part

human CD38 on cells = biological target: T2, human CD38 on cells (human, UniProt P28907 1-300); experiment: FACS titration on CD38 expressing RPMI8226 cells
T2 construct: whole, on cells; The species is stated for the CHO-K1 transfectants; also called CHO-K1 cells recombinantly expressing human CD38; CD38 expressing RPMI8226 cell

Kd (human CD38-Fc): 3 nM
EC50 (human CD38 on cells): 0.4 nM
B1: MOR03080 IgG1 (antibody, V domains shown)
VH: QVQLVESGGGLVQPGGSLRLSCAASGFTFSSYGMHWVRQAPGKGLEWVSNIYSDGSNTFYADSVKGRFTISRDNSKNTLYLQMNSLRAEDTAVYYCARNMYRWPFHYFFDYWGQGTLVTVSS
VL: DIELTQPPSVSVAPGQTARISCSGDNIGNKYVSWYQQKPGQAPVVVIYGDNNRPSGIPERFSGSNSGNTATLTISGTQAEDEADYYCSSYDSSYFVFGGGTKLTVLG
